The values below come from the RNAGym collection of RNA variant scans (doi:10.7554/elife.80360).

The chains are these.
B1: Hammerhead Ribozyme (parent)
chain: ACCGGAUGUGCUUUCCGGUCUGAUGAGUCCGUGAGGACGAAACAG

Variants of B1 are the subject of this data set. The experiment in a line: self-cleavage, relative activity (ratio to wild type); higher = more cleavage; co-transcriptional.
For ACCGGAUGUGCUUUCCGUUCUGAUGAGUCCGUGAGGACGAUACAG [G18U A41U], the self-cleavage was 0.385.
Consider ACCGGAUGUGCUUUCCGUUCUGAUGAGUCCGUGAGGACGAGACAG [G18U A41G], for which the self-cleavage came out at 0.375.
Turning to ACCGGAUGUGCUUUCCGUUCUGAUGAGUCCGUGAGGACGACACAG [G18U A41C], the self-cleavage is 0.427.
With ACCGGAUGUGCUUUCCGUUCUGAUGAGUCCGUGAGUACGAAACAG [G18U G36U], the self-cleavage stood at 0.425.
As for ACCGGAUGUGCUUUCCGUUCUGAUGAGUCCGUGAGAACGAAACAG [G18U G36A], the self-cleavage is 0.621.
ACCGGAUGUGCUUUCCGUUCUGAUGAGUCCGUGAGCACGAAACAG [G18U G36C]: the self-cleavage turned out to be 0.308.
Regarding ACCGGAUGUGCUUUCCGUUCUGAUGAGUCCGUGAGGACGCAACAG [G18U A40C], the self-cleavage amounted to 0.394.
Regarding ACCGGAUGUGCUUUCCGUUCUGAUGAGUCCGUGAGGACGGAACAG [G18U A40G], the self-cleavage was determined as 0.357.
Regarding ACCGGAUGUGCUUUCCGUUCUGAUGAGUCCGUGAGGACGUAACAG [G18U A40U], the self-cleavage stood at 0.345.
Turning to ACCGGAUGUGCUUUCCGGACUGAUGAGUCCGUGAGGACGAUACAG [U19A A41U], the self-cleavage came to 0.308.
Then ACCGGAUGUGCUUUCCGGACUGAUGAGUCCGUGAGGACGACACAG [U19A A41C], with 0.391; and ACCGGAUGUGCUUUCCGGACUGAUGAGUCCGUGAGGACGAGACAG [U19A A41G], with 0.312.
For the variant ACCGGAUGUGCUUUCCGUUCUGAUGAGUCCGUGAGGACGAAACAG [G18U], the self-cleavage was 0.875.
Turning to ACCGGAUGUGCUUUCCGUUCUGAUGAGUCCGUAAGGACGAAACAG [G18U G33A], the self-cleavage was determined as 0.948.
As for ACCGGAUGUGCUUUCCGUUCUGAUGAGUCCGUUAGGACGAAACAG [G18U G33U], the self-cleavage was found to be 0.705.
Turning to ACCGGAUGUGCUUUCCGUUCUGAUGAGUCCGUCAGGACGAAACAG [G18U G33C], the self-cleavage worked out at 0.602.
In the case of ACCGGAUGUGCUUUCCGUUCUGAUGAGUACGUGAGGACGAAACAG [G18U C29A], the self-cleavage stood at 0.538.
Then ACCGGAUGUGCUUUCCGUUCUGAUGAGUGCGUGAGGACGAAACAG [G18U C29G], with 0.575.
As for ACCGGAUGUGCUUUCCGUUCUGAUGAGUUCGUGAGGACGAAACAG [G18U C29U], the self-cleavage stood at 0.547.
Consider ACCGGAUGUGCUUUCCGGACUGAUGCGUCCGUGAGGACGAAACAG [U19A A26C], for which the self-cleavage worked out at 0.364.
For the variant ACCGGAUGUGCUUUCCGGACUGAUGGGUCCGUGAGGACGAAACAG [U19A A26G], the self-cleavage is 0.313.
As to ACCGGAUGUGCUUUCCGGACUGAUGUGUCCGUGAGGACGAAACAG [U19A A26U], the self-cleavage turned out to be 0.255.
With ACCGGAUGUGCUUUCCGUUCUGAUGAGUCGGUGAGGACGAAACAG [G18U C30G], the self-cleavage stood at 0.493.
Then ACCGGAUGUGCUUUCCGUUCUGAUGAGUCAGUGAGGACGAAACAG [G18U C30A], with 0.556.
Next, ACCGGAUGUGCUUUCCGUUCUGAUGAGUCUGUGAGGACGAAACAG [G18U C30U]: 0.849; ACCGGAUGUGCUUUCCGGACUGAUGAGUCCGUGAGGACGAAACAG [U19A]: 0.391.
For ACCGGAUGUGCUUUCCGUUCUAAUGAGUCCGUGAGGACGAAACAG [G18U G22A], the self-cleavage came out at 0.344.
In the case of ACCGGAUGUGCUUUCCGUUCUUAUGAGUCCGUGAGGACGAAACAG [G18U G22U], the self-cleavage is 0.378.
In the case of ACCGGAUGUGCUUUCCGUUCUCAUGAGUCCGUGAGGACGAAACAG [G18U G22C], the self-cleavage was 0.372.
Consider ACCGGAUGUGCUUUCCGGACUGAUGAGUCCGUGAGGACGCAACAG [U19A A40C], for which the self-cleavage was found to be 0.339.
Take ACCGGAUGUGCUUUCCGGACUGAUGAGUCCGUGAGGACGUAACAG [U19A A40U]: the self-cleavage is 0.35.
Next, ACCGGAUGUGCUUUCCGGACUGAUGAGUCCGUGAGGACGGAACAG [U19A A40G]: 0.307.
Consider ACCGGAUGUGCUUUCCGUUCUGAAGAGUCCGUGAGGACGAAACAG [G18U U24A], for which the self-cleavage was determined as 0.858.
Next, ACCGGAUGUGCUUUCCGUUCUGACGAGUCCGUGAGGACGAAACAG [G18U U24C]: 0.642; ACCGGAUGUGCUUUCCGUUCUGAGGAGUCCGUGAGGACGAAACAG [G18U U24G]: 0.607.
As for ACCGGAUGUGCUUUCCGUUCUGAUGAGUCCGUGAGGGCGAAACAG [G18U A37G], the self-cleavage is 0.629.
On to ACCGGAUGUGCUUUCCGUUCUGAUGAGUCCGUGAGGUCGAAACAG [G18U A37U], for which the self-cleavage came out at 0.494.
Take ACCGGAUGUGCUUUCCGUUCUGAUGAGUCCGUGAGGCCGAAACAG [G18U A37C]: the self-cleavage stood at 0.567.
Next, ACCGGAUGUGCUUUCCGUUCUGAUGGGUCCGUGAGGACGAAACAG [G18U A26G]: 0.339; ACCGGAUGUGCUUUCCGUUCUGAUGUGUCCGUGAGGACGAAACAG [G18U A26U]: 0.368.
Take ACCGGAUGUGCUUUCCGUUCUGAUGCGUCCGUGAGGACGAAACAG [G18U A26C]: the self-cleavage is 0.328.
ACCGGAUGUGCUUUCCGUUCUGAUGAAUCCGUGAGGACGAAACAG [G18U G27A]: the self-cleavage came to 0.567.
As to ACCGGAUGUGCUUUCCGUUCUGAUGACUCCGUGAGGACGAAACAG [G18U G27C], the self-cleavage turned out to be 0.427.
Then ACCGGAUGUGCUUUCCGUUCUGAUGAUUCCGUGAGGACGAAACAG [G18U G27U], with 0.53.
ACCGGAUGUGCUUUCCGUCCUGAUGAGUCCGUGAGGACGAAACAG [G18U U19C]: the self-cleavage was 0.487.
On to ACCGGAUGUGCUUUCCGUACUGAUGAGUCCGUGAGGACGAAACAG [G18U U19A], for which the self-cleavage is 0.34.
For the variant ACCGGAUGUGCUUUCCGUGCUGAUGAGUCCGUGAGGACGAAACAG [G18U U19G], the self-cleavage is 0.291.
For ACCGGAUGUGCUUUCCGUUCUGAUGAGUCCGUGAGGACGAAACGG [G18U A44G], the self-cleavage amounted to 0.942.
Next, ACCGGAUGUGCUUUCCGUUCUGAUGAGUCCGUGAGGACGAAACCG [G18U A44C]: 0.431; ACCGGAUGUGCUUUCCGUUCUGAUGAGUCCGUGAGGACGAAACUG [G18U A44U]: 0.368.
For the variant ACCGGAUGUGCUUUCCGUUCUGAUGAGUCCGUGGGGACGAAACAG [G18U A34G], the self-cleavage is 0.493.
ACCGGAUGUGCUUUCCGUUCUGAUGAGUCCGUGUGGACGAAACAG [G18U A34U]: the self-cleavage is 0.51.
In the case of ACCGGAUGUGCUUUCCGUUCUGAUGAGUCCGUGCGGACGAAACAG [G18U A34C], the self-cleavage is 0.407.
Take ACCGGAUGUGCUUUCCGUUCUGAUGAGUCCCUGAGGACGAAACAG [G18U G31C]: the self-cleavage came out at 0.685.
In the case of ACCGGAUGUGCUUUCCGUUCUGAUGAGUCCUUGAGGACGAAACAG [G18U G31U], the self-cleavage stood at 0.781.
Then ACCGGAUGUGCUUUCCGUUCUGAUGAGUCCAUGAGGACGAAACAG [G18U G31A], with 0.905.
With ACCGGAUGUGCUUUCCGGACUGAUGAGUCCGUGAGGACGAAUCAG [U19A A42U], the self-cleavage was 0.378.
